We go through 3 molecules from publication PMC1635293.

Read-outs that look alike come from different tables or passages of the source.

Assay in all cases: competition
Data set [1] has as its target T1, Exportin-5 (hsExp5);hsRanQ69L (GTP form) (human;human, UniProt Q9HAV4;P62826 1-1204;1-216, |Q69L).
Data set [2] has as its target T2, Msn5p (yeast exportin-5 orthologue);Gsp1pQ71L (GTP form) (budding yeast;yeast, UniProt P52918;P32835 1-1224;1-219, |Q71L).
In data set [3] the target is T1, Exportin-5 (hsExp5);hsRanQ69L (GTP form). The source holds these as a separate data set.
Data set [4] addresses Exportin-5 (dmExp5);dmRanQ69L (GTP form) (Drosophila melanogaster?;Drosophila, UniProt Q9BP41;Q9VZ23 1-1241;1-216, |Q69L).
For data set [5], the target named is T2, Msn5p (yeast exportin-5 …). The source holds these as a separate data set.

T1 sequence (Q9HAV4 whole entry Q69L, one chain of several): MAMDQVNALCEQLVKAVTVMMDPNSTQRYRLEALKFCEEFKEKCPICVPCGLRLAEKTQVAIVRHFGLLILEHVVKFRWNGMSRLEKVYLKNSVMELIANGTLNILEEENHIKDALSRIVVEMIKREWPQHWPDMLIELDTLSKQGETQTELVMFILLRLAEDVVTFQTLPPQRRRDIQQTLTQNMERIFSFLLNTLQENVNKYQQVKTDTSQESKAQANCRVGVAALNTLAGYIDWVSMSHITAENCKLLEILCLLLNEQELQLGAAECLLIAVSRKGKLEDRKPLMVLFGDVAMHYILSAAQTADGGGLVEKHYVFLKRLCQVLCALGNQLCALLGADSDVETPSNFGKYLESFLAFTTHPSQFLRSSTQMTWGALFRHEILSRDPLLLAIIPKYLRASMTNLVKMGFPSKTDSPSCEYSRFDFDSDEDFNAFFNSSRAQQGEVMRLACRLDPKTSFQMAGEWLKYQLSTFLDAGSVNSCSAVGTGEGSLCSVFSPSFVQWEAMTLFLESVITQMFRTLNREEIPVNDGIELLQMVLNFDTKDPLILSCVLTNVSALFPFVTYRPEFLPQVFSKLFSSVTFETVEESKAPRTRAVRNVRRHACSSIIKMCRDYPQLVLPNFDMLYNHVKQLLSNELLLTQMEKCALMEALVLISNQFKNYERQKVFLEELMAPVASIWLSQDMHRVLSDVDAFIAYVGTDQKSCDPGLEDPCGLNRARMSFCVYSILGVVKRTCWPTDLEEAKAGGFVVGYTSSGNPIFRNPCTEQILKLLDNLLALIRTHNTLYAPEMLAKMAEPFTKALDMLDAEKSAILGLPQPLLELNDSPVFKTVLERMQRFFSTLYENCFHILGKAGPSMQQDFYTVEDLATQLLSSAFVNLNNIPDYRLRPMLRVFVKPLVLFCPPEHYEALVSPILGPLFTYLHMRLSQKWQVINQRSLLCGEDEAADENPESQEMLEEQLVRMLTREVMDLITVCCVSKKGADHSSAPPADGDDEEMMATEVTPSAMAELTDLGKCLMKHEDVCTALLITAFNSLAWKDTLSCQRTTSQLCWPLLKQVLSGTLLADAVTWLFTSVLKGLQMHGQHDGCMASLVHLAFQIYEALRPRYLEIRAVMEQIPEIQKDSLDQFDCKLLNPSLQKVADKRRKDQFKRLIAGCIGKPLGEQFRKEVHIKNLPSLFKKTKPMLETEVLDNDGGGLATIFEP

B1: dsRNA with 2 nt 5' overhang (dsRNA)
RNA 1: GGGCUUUCAGUCGGAUGUUUG
RNA 2: UGCAAACAUCCGACUGAAAGC
As to B1, the binding result in data set [1] and in data set [2] was “no binding” throughout.

B2: dsRNA with 2 nt 3' overhang (22 bp dsRNA) (dsRNA)
RNA 1: GGGCUUUCAGUCGGAUGUUUGCAGC
RNA 2: UGCAAACAUCCGACUGAAAGC
As for B2, the binding result in data set [3] and in data set [4] was “binds” each time.

B3: dsDNA encoding the same sequence as the dsRNA (dsDNA)
DNA 1: GGGCTTTCAGTCGGATGTTTGCAGC
DNA 2: TGCAAACATCCGACTGAAAGC
In the case of B3, the binding result in data set [3], in data set [4] and in data set [5] was “no binding” throughout.
